# Measured values taken from US20230363418A1, “COMPOSITION FOR PREVENTING OR TREATING NEUROPSYCHOLOGIC DISEASE, COMPRISING MANF” (CEFO CO., LTD., priority 2020, published 2023).
# B1: MANF: one of 16 or more growth factors secreted into nerve stem cells by cerebrovascular cells; amino acid sequence of SEQ ID NO: 1 (protein)
# chain: MRRMWATQGLAVALALSVLPGSRALRPGDCEVCISYLGRFYQDLKDRDVTFSPATIENELIKFCREARGKENRLCYYIGATDDAATKIINEVSKPLAHHIPVEKICEKLKKKDSQICELKYDKQIDLSTVDLKKLRVKELKKILDDWGETCKGCAEKSDYIRKINELMPKYAPKAASARTDL
# modifications: MANF
# What was measured:
# Type in all cases: in vivo, rat
# [1] = test system: IBO-administered memory impairment and autism model; assay: Passive avoidance test; details: MANF-AAV-hMSC transplanted into the hippocampus of IBO rats
# Method: Memory impairment and autism models were prepared by administering IBO to the entorhinal cortex of the rats, wherein the IBO destroys granule cells of the dentate gyrus (DG) and pyramidal cells of the hippocampus, which receive nerve signals input from the entorhinal cortex. Specifically, the rats were anesthetized with equitensin (10% ethanol containing 350 mM pentobarbital sodium, 250 mM chloral hydrate, 85 mM MgSO and 40% propylene glycol). The incisor bar of a stereotaxic device (Stoelting Co., U.S.A.) was placed 3.4 mm below the interaural line, and the injection needle angle was fixed at […] right from the center of the sagittal plane. 1.5 ul of IBO (1 mg/ml) was injected into the entorhinal cortex of the rat using the stereotaxic device. The IBO was injected into three locations of first, AP: -8.4, ML: -4.8, DV: -4.6; Second, AP; -8.4, ML: -4.8, DV: […]; Third, AP: -8.8, ML: - 3.65, DV: -3.4 (FIG. 7). […]
# It was performed according to the method described in Heo Het al. (2009) for the same number of rats as in each group of Example 6-1. […] Exactly 24 hours after the adaptation training, the rats were placed in the bright room again, and the latency time to enter the dark room was measured for 720 seconds (confinement experiment).
# [2] = test system: IBO-administered memory impairment and autism model; assay: Open space behavior test (anxiety behavior)
# Method: Memory impairment and autism models were prepared by administering IBO to the entorhinal cortex of the rats, wherein the IBO destroys granule cells of the dentate gyrus (DG) and pyramidal cells of the hippocampus, which receive nerve signals input from the entorhinal cortex. Specifically, the rats were anesthetized with equitensin (10% ethanol containing 350 mM pentobarbital sodium, 250 mM chloral hydrate, 85 mM MgSO and 40% propylene glycol). The incisor bar of a stereotaxic device (Stoelting Co., U.S.A.) was placed 3.4 mm below the interaural line, and the injection needle angle was fixed at […] right from the center of the sagittal plane. 1.5 ul of IBO (1 mg/ml) was injected into the entorhinal cortex of the rat using the stereotaxic device. The IBO was injected into three locations of first, AP: -8.4, ML: -4.8, DV: -4.6; Second, AP; -8.4, ML: -4.8, DV: […]; Third, AP: -8.8, ML: - 3.65, DV: -3.4 (FIG. 7).
# After 2-3 IBO injections, each group was randomly classified into an IBO-administrated group (negative control group), and a GFP-AAV-hMSC-administrated group (GFP-AAV) and a MANF-AAV-hMSC-administrated group […] as a control group. A rest period of one week was provided. […]
# [3] = test system: hippocampus of IBO-administered memory impairment and autism model; assay: Immunohistochemical analysis of brain tissue (BrdU, SOX2, DCX, NeuN, GAD67, CNPase); details: brain tissue after behavioral experiment
# Method: The brain tissue stored in the same method as the immunostaining of Example 9-1 was washed twice with PBS, permeated in 0.5% Triton X-100 for 20 minutes, and cultured in 2N HCl at 37° C. for 30 minutes. Thereafter, blocking was performed in 15% standard serum, 3% bovine serum albumin (bio-WORLD, Dublin, OH, USA) and 0.1% Triton X-100 in a free-floating state for 2 hours. The tissue was doubly stained at 4° C. for 16 hours using BrdU (abcam, 1:700) antibody, SOX2 (R&D system, MAB2018, 1:2000), DCX (Santacruz, sc8066, 1:1000), NeuN (Millipore, MAB377B, 1:700), CNPase (Abcam, ab6319, 1:700), vGluT1 (Millipore, MAB5502, 1:700), GAD67 (Millipore, MAB5406, 1:2000) as primary antibodies. As secondary antibodies, mo-Alexa 488 (Invitrogen, A21202, 1:700), mo-Cy3 (Jackson lab, 715-165-151, 1:500), rb-Alexa 488 (Jackson lab, 711-546-152, 1:700), rat-Alexa 488 (Abcam, ab6326, 1:700), etc. were used. Immunostained tissues were scanned with a confocal microscope (LSM510, LSM800 Carl Zeiss, Oberkochen, Germany).
# The number of differentiation markers in the hippocampus of each experimental animal was shown by counting the number of DAPI-labeled cells in the double and triple photographed slides and counting the number of each cells labeled by fluorescently labeling each differentiation marker, NeuN, CNPase, GAD and vGluT1. Here was counted the number of cells labeled with the secondary antibody that is precisely matched in shape and location and has the shape of a cell.
molecule,measurement,setting,value
B1,memory ability in passive avoidance test,[1],memory improvement
same,time in the center,[2]; compared to the IBO group,significantly increased
same,time in the center,[2]; compared to the MSC group,also increased
same,differentiation of newly proliferated (BrdU stained) neural progenitor cells into GABAergic nerve cells (GAD),[3],increased
same,differentiation of newly proliferated (BrdU stained) neural progenitor cells into mature nerve cells (NeuN),[3],increased
same,differentiation of newly proliferated (BrdU stained) neural progenitor cells into oligodendrocytes (CNPase),[3],increased
same,migration (DCX) of neural stem cells (Sox2+),[3]; MANF-AAV-hMSC transplanted,promoted
same,"proliferation (BrdU+, Ki67) of neural stem cells (Sox2+)",[3]; MANF-AAV-hMSC transplanted,promoted
